From patent publication US20200283521A1 (GRANULAR THERAPEUTICS, published 2020)

How the values were obtained:
Assay in all cases: direct ELISA on coated protein, IgG1
hLTBR-Fc = target: T1, hLTBR-Fc (human, UniProt P36941)
T1 construct: Fc fusion; member of the panel m9

hDR6-Fc = target: T2, hDR6-Fc (human, UniProt O75509)
T2 construct: Fc fusion; member of the panel m9
T2 sequence (looked up): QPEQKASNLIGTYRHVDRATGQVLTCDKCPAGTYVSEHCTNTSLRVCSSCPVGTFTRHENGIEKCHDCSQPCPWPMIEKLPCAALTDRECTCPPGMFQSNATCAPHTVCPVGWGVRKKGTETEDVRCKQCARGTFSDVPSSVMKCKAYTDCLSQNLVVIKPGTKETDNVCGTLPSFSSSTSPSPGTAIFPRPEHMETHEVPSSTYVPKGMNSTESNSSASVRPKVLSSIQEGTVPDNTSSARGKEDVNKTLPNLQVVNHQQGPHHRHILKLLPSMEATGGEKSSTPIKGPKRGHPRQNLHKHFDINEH

hDR3-Fc = target: T3, hDR3-Fc (human, UniProt Q93038)
T3 construct: Fc fusion; member of the panel m9
T3 sequence (looked up): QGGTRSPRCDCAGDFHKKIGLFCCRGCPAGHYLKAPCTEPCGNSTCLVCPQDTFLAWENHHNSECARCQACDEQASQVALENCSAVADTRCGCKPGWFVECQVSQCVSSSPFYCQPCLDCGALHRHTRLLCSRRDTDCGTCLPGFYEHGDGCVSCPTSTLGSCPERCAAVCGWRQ

hCMET-Fc = target: T4, hCMET-Fc (The natural ectodomain is cleaved by furin after residue 307 into disulfide-linked alpha and beta chains. It is given here as one continuous stretch.)
T4 construct: member of the panel m9
T4 chain: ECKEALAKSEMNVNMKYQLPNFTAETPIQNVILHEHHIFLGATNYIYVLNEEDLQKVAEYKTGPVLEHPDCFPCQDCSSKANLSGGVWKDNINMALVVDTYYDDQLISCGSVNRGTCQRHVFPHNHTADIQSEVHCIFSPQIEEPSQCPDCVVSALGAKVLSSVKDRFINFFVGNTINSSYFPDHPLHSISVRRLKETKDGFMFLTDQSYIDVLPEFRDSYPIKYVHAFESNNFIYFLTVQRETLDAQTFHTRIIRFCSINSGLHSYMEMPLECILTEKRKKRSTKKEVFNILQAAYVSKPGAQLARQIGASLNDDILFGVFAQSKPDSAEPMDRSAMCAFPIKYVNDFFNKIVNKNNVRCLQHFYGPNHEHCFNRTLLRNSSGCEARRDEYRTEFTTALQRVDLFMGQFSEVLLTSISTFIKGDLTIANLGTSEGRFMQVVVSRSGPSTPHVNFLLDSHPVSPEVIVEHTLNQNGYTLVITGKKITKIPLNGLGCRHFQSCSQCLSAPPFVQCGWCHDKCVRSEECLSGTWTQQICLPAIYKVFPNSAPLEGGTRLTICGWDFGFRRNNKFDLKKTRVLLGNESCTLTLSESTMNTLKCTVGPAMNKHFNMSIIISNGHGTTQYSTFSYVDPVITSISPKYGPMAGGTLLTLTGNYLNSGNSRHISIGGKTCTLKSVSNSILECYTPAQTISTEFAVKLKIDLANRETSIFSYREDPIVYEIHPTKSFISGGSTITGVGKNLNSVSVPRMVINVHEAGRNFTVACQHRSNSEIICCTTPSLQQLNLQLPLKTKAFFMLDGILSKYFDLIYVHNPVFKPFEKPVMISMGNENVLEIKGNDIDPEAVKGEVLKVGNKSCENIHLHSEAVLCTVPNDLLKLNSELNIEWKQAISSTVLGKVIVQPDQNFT

hBAFFR-Fc = target: T5, hBAFFR-Fc (human, UniProt Q96RJ3)
T5 construct: Fc fusion; member of the panel m9
T5 sequence (Q96RJ3 7-71 limits assumed): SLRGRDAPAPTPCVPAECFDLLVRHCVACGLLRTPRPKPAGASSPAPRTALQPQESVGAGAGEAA

hVCAM-Fc = target: T6, hVCAM-Fc
T6 construct: member of the panel m9
T6 chain: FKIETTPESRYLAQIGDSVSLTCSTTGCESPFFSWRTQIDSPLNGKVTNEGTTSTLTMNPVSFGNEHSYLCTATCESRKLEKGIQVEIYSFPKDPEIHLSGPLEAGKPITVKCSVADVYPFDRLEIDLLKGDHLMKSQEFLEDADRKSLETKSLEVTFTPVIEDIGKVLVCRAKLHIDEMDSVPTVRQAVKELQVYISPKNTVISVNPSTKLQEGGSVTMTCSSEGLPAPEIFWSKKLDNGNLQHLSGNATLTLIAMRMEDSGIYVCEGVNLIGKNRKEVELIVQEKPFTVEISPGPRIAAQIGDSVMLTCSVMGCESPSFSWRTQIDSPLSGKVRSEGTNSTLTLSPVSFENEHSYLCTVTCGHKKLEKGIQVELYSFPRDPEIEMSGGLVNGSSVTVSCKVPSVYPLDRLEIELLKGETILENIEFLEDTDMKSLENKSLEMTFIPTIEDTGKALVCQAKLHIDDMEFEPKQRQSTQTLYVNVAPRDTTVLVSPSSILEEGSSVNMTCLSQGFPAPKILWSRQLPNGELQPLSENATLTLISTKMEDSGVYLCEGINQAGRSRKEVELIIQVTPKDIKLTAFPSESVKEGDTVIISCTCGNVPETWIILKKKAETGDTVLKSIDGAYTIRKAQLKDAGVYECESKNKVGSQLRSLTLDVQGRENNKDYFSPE

hCD4 = target: T7, hCD4 (human, UniProt P01730)
T7 construct: purified recombinant protein; member of the panel m9

hTWEAK-Fc = target: T8, hTWEAK-Fc (human, UniProt O43508)
T8 construct: Fc fusion; member of the panel m9
T8 sequence (looked up): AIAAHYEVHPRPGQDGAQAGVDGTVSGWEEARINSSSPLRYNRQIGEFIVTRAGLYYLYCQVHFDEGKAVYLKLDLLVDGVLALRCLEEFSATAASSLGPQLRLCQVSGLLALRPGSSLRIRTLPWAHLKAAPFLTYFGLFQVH

hOX40-Fc = target: T9, hOX40-Fc
T9 construct: member of the panel m9
T9 chain: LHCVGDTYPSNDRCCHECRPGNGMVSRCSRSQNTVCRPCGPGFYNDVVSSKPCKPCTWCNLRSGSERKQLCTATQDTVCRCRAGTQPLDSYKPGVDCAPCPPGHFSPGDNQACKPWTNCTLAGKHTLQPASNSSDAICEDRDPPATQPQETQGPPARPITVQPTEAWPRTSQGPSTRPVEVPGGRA

hICAM-1-Fc = target: T10, hICAM-1-Fc (human, UniProt P05362)
T10 construct: Fc fusion; member of the panel m9
T10 sequence (P05362 28-480 limits assumed): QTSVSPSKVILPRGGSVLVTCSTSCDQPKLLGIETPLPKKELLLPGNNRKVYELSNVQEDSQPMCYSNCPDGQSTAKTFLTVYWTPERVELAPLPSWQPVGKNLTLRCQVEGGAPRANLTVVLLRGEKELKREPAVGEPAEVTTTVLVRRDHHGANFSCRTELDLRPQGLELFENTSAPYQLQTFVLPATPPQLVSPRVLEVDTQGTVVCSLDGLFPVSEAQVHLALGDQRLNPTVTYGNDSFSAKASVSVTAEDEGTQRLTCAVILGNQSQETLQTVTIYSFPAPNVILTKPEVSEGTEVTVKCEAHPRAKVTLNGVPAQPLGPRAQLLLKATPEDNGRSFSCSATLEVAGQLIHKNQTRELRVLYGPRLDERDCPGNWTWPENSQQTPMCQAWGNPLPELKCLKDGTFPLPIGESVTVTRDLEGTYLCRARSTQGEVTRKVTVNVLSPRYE

Measured: binding result

T1 sequence (P36941 28-227 limits assumed): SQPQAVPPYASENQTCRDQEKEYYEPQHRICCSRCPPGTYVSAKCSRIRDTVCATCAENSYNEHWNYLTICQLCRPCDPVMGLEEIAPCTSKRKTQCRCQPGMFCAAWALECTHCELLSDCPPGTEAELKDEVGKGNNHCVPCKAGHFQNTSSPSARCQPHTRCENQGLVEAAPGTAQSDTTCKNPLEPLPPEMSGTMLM

B1: humanized h37M, human IgG1 (antibody, V domains shown)
VH: QVQLVQSGAEVKKPGASVKLSCKASGYTFTDYYINWVRQAPGKGLEWIARIYPGSGNTYYNEKFKGRATLTADKSTSTAYMQLSSLRSEDTAVYFCARGVYYFDYWGQGTTVTVSS
VL: DIVMTQSPSSLSASVGDRVTITCKASQNVRTNVAWYQQKPGKAPKALIYSASYRYSGVPDRFTGSGSGTDFTLTISSLQPEDFADYFCQQYNSYPRTFGGGTKVEIK
notes: human IgG1; terbium-labelled as the tracer of the HTRF assays; also called C-KIT-h37M; h37M-IgG1
no binding (tested: 1 µg/ml): all assays above
